Key:
[1] = molecular target: c-Met on human cancer cells (human) (UniProt P08581)
[2] = molecular target: c-Met on human cancer cells (human) (UniProt P08581); remark: listed apart in the source

Akt phosphorylation (%) in Caki-1 cells, 5 ug/ml, 30 min [2]: 100%
Substance: antibody 5D5 (ATCC Cat. # HB11895)
relative cell viability (%) of MKN45 cells, 72 h [1]: 53%

Source: patent US9717715B2
